Reference: the supplement of paper PMC12764529
± gives the half width of the 95% confidence interval.

Tests used:
[1] = folding stability dG unfold from trypsin proteolysis; higher = more stable
Method: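 Folding stability of de novo designed mini-proteins (<80 aa, no Cys; designed by TrROS, TrMRF, ProteinMPNN and the joint model) was measured by cDNA display proteolysis with trypsin and chymotrypsin. Each protease was used at 11 concentrations in a threefold dilution series plus a no-protease condition. K50 was inferred by Bayesian fitting of sequencing counts, and dG unfold was derived against a sequence-predicted unfolded-state K50 (Tsuboyama et al. method). Sequences shown include variable-length N-terminal GS-type padding (SAGGSAGG...) inside a display construct carrying a PA tag. Rows were kept only if the AF2 dimer inter-PAE was >15, to exclude likely homo-oligomers.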

[2] = folding stability dG unfold from chymotrypsin proteolysis; higher = more stable
In short: (§1)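 K50 was inferred by Bayesian fitting of sequencing counts obtained after protease digestion of designed mini-proteins. Unfolding free energy was derived by comparison with a sequence-predicted unfolded-state K50 and a shared folded-state K50, for each protease or both combined. The mini-proteins were under 80 residues, had no cysteine, were carried in a PA-tagged cDNA display construct, and were kept only if AlphaFold2 dimer inter-PAE exceeded 15.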

[3] = folding stability dG unfold (combined trypsin and chymotrypsin); higher = more stable
In short: as §1

Sequence	folding stability dG unfold [1] [kcal/mol]	folding stability dG unfold [2] [kcal/mol]	folding stability dG unfold [3] [kcal/mol]
SAGGSAGGSAGGMTIEINGKKYEIVEVKEEKGKLTLKIKVNGKLLEIEIDKDKNEIKIYPSAGGSAGGSAGG [r7_553_TrROS_Hall]	3.44 ± 0.14	4.05 ± 0.1	3.91 ± 0.14
SAGGSAVRIKVWPPNGKEQWIPIPSSMTPSTVQEMAENLADDWQEQNGNKNVKVEVDPDNGWIRIRSAGGSA [r15_33_TrROS]	-1.02 ± 0.3	0.197 ± 0.084	-0.0158 ± 0.066
SAEEELRKALENMSDEELEALLRAAAPPPKTVTIRLSEEELEKLAQELADEYNVTVTVEVDGKTLTLTLSAG [r14_7_TrROS_Hall]	1.69 ± 0.024	1.74 ± 0.051	1.76 ± 0.049
SAGGSAGGSMKTITVPPEVLAALPLEEIVERNTSPDEEVEVEFVEEPGPVTVIIDTKKKPEHHSAGGSAGGS [r12_716_JUSTAS]	-0.95 ± 0.26	0.551 ± 0.015	0.252 ± 0.092
SAGPMTLEILYKRPANEPFTLEDLELAKEVEEAVAALVPSKYKVRIKSIEYEKYPDYYYIRVTIEVEKPSAG [r5_121_TrMRF]	4.57 ± 0.13	4.71 ± 0.061	4.64 ± 0.083
SAGGSAGGSAGGGYIEIDSVHLHPDGTVTRTRAVLEVDENGNVRVLSAETETVPLDDILGSAGGSAGGSAGG [r7_521_TrMRF]	2.28 ± 0.14	2.32 ± 0.043	2.38 ± 0.12
SAGGVTVSLSDPLSGNITTVPVAPNSTVTVTTSASLGGPNYTITTTVTVTLNGSTPVFTITSTVTPLSSAGG [r19_331_JUSTAS]	3.08 ± 0.16	3.54 ± 0.071	3.41 ± 0.17
SAGGSAGGSAGELTVTVTVLLEDGTAVKIEARFELDENGNLHLEVKVEVVKLPELSPEDLSAGGSAGGSAGG [r11_728_TrROS_Hall]	3.4 ± 0.43	2.25 ± 0.2	2.74 ± 0.32
SMITIEINVGNKKYTVEIVPEKGIIKITDPNGTPIGEGEIKPDSIDITLTKPNTDETYKFTFPIPPESLPSA [r9_963_JUSTAS]	2.29 ± 0.1	3.04 ± 0.12	2.69 ± 0.18
SAGGSAGGSAGGMVVRVTKNGTSTEIIVDSEEEAKELLKPLFPDDSEVEIEFVSEEELSSAGGSAGGSAGGS [r10_1167_JUSTAS]	0.0397 ± 0.07	0.963 ± 0.065	0.718 ± 0.12
SAMEKVYIKVKFEVEGDPNGKEKKTIELIVENPDPNIGKEKLLEIAKEAVEKFAKENGYKVKISEVEIGSAG [r14_190_TrMRF]	2.76 ± 0.29	4.22 ± 0.18	4.29 ± 0.39
SAGGSAKPKITITVTYDKETNTVTVTITFPDGTTLTITVEAETEEEAKKAAKKLVEELLKKLEELESAGGSA [r15_477_TrROS_Hall]	3.46 ± 0.27	3.4 ± 0.2	3.52 ± 0.23
SAGGSPVLKVEVFELEEDKLLLKIYFPKEEAGLTPEQKEALAKAIQELFPNTKAFTTDEELYIVVDSAGGSA [r2_256_TrMRF]	2.06 ± 0.075	2.38 ± 0.15	2.37 ± 0.12
SAGGSAGGSAMLVIRVYFEDTGRVLTLTADSEEEALEAIKRLLPPGAKIKKVEIFEVSEEDLSAGGSAGGSA [r18_350_TrROS_Hall]	4.08 ± 0.071	4.439 ± 0.041	4.33 ± 0.058
SAGGSAGGVTINFPDGVTIMVDPGTGKIYIMNPNGYIFKFTIERKPNEWKLKIEPIKPIPPDDFSAGGSAGG [r6_324_TrROS]	2.55 ± 0.085	3.7 ± 0.091	3.16 ± 0.19
SAGGSAGGMKATFHPGPGRFPLGDKEYEVDLIYVTVTLPNGVPRVFVLTPDEVEELLPDLELEGSAGGSAGG [r6_561_TrMRF]	0.338 ± 0.07	1.04 ± 0.071	0.794 ± 0.098
SAGGSAGGSMTIPESEFKQMSEEELKKLLLENPEPVTVVTSDPEILERIKKIFEKLGIKITLESAGGSAGGS [r12_97_JUSTAS]	2.4 ± 0.11	2.63 ± 0.12	2.59 ± 0.14
SAGGSAMLPDEVTVKPVEMPVPPDLTLEELEQEVRERAGPGTSVEVSYDPATGVATVTVTDARPALSAGGSA [r15_749_JUSTAS]	-0.162 ± 0.035	1.44 ± 0.029	1.03 ± 0.04
SEEIAKKIADELKKAGYEVVKVEVTYDKETKKVTIKIVVKDKKTNEYYKITIKLNEETGEIVEVKIEKLPSA [r9_814_TrROS_Hall]	2.96 ± 0.42	4.14 ± 0.41	
SAGGDPAPLEVDIEMDPDNGRIRIEIRAGGSKVIYEYEIPLDGYEFKVKIIVVDGKIVIEIEFEMPDSAGGS [r16_631_TrROS]	4.27 ± 0.55	3.81 ± 0.27	
SAGGSAGGKKKKPPPLVVVKIEITNPNGEKKELTLVFPSLEDAKAAIEALLPPGYTAKVEIKPLSAGGSAGG [r6_289_TrROS_Hall]	3.16 ± 0.35	3.69 ± 0.37	
SAGGKRKIMIPMDEMEEKFGIPPNQTVEELAKYINPNYKIEVDNVRYEKDENGKERYWVKVEIEPPKDSAGG [r13_723_TrROS]	0.739 ± 0.25	-0.136 ± 0.61	

Sequence	folding stability dG unfold [1] [kcal/mol]	folding stability dG unfold [2] [kcal/mol]	folding stability dG unfold [3] [kcal/mol]
SAGGSAGGSAGGGKYRLKLRFTFTNAAGGSSELELEVEIEIPPPPLIAPDADGHWYSLTSAGGSAGGSAGGS [r10_330_TrMRF]	3.86 ± 0.27	5.31 ± 0.65	
SADKIKIPPGFQIFGPNGQPIRPGTEVEVEDIEPHPGGGEFMFEVKIKSPDDGEEHNWPIMIRFPPAGKSAG [r14_258_TrROS]	0.755 ± 0.13	-0.395 ± 0.24	
SAGGSAGGSASLPEKLAQEAKEKILKENPDVEVTEIVVTKLPPEKYTVTIKTPDGKTETIPLSAGGSAGGSA [r18_423_JUSTAS]	-0.00229 ± 0.023		-0.308 ± 0.1
SAGGSAGGSAGGFVEKYPDGVIVEKDPNNDSGTVKKVTTTKDPNTNKPTSKVTVTPISKLSAGGSAGGSAGG [r7_181_JUSTAS]	-0.844 ± 0.2		< -1
SAGGSAGGSVEIKSITTVTDPNSSANPTTITVKRDPAKGVLGEEVKAIAKALEEAGYPTTFGTSAGGSAGGS [r12_172_JUSTAS]	-0.769 ± 0.17		< -1
SAGGSAGGSAGGMKTYSVEELRARLEEEGKEPTLEELASLPGAKVELNKETKEATIVLKPSAGGSAGGSAGG [r7_180_TrROS_Hall]	0.044 ± 0.16		< -1
SMKKTLTEKIEGVLPEEEAERYLEEYIASRPWAEKVEVKPEIKPIFDEKGNKLVKVKTTITVTISEEKLKSA [r9_1006_JUSTAS]	-0.776 ± 0.95		< -1
SAGGSAGGSAGGKKVKIKIEIPGMSKEEIEKLAKELEKKGIKVEKIEVKPLPKVEVFEKKSAGGSAGGSAGG [r7_906_TrROS_Hall]	-0.602 ± 0.27		< -1
SKITITIEEEEVEVNGKKYKVFKVTATVTVTEYKFKDGKLVEKKTKTKTITVRIVLDKNGKIVKIEPLPDSA [r9_829_TrROS_Hall]	4.33 ± 0.32		> 6
SAGGSAGGSAGKEIHIPFPDGDTPEQAKKFAKEIADMLAQKNGKPIKVDKIEIIPPEQWPSAGGSAGGSAGG [r17_68_TrROS]	-0.546 ± 0.11		-0.804 ± 0.34
SAGGSAGGSAGGSPPTAKELVKELREKFPPGYPITIKHPDKTIRIMMNPGPGKFQVEIYSAGGSAGGSAGGS [r4_150_TrROS]	-0.236 ± 0.37		< -1
SPAVRPLSAEFYDPRYTVEAPVYESEEGEPVLNIRFLVPEYELEIPFPLEDPEAVFESFAEDGVSLTLTDSA [r9_384_TrMRF]	0.0201 ± 0.088		-0.723 ± 0.17
SAGGSMTLTEVSYEGDKVVTTTTTFTPGAPALTSSTTTTPIPPVPLGPRPVIFFEPVSEMRPLALVSAGGSA [r2_332_JUSTAS]	0.628 ± 0.051		0.034 ± 0.17
SAGGSAGGSAGSVEEIESPDGTKTLVTKEPDSIKTTVTKPGGIPTLVTIDSKTGKWSVSLSAGGSAGGSAGG [r11_590_JUSTAS]	-0.595 ± 0.24		-0.714 ± 0.63
SAGGSAGGSAGMKPGQVVIYKIKIPLPDDGEPLFEIPIMYPVGMPEEQAKDFAKEFADKFSAGGSAGGSAGG [r11_516_TrROS]	-0.41 ± 0.12		-0.586 ± 0.24
SAGGSAGGSMDPGQPMEFIQIYPDPDGNLEIHVSEIRIDPDGGAKVTEVEPKRIDDAEDLAKFSAGGSAGGS [r12_386_TrROS]	-0.752 ± 0.19		< -1
SAGGSAGGSAGSPPGSTTLRAETVVVELPAAEAYTPEGERVELPRVIVEETVERELEAGLSAGGSAGGSAGG [r11_907_JUSTAS]	0.427 ± 0.043		-0.216 ± 0.31
SAGGSAGGSAGEEEVEPPPEVVVRVRFFDKDGKEVLEVEMSLDELRALAEAGLVEVELEPSAGGSAGGSAGG [r11_159_TrROS_Hall]	2.97 ± 0.25	2.63 ± 0.33	
SAGGPSAENLVEGDKVLLLIPLGDGPERRLELPLPDGRPVVVEVEPDRPGLITVTIPETGKPIVLPLSAGGS [r16_198_TrMRF]	-0.489 ± 0.086		< -1
SAGGSVRIESIKWKRPPNGMFKIEIHVEAPPGDPDDPEKQERQAESVAKPIAKELQDEFGFKPIGPSAGGSA [r2_306_TrROS]	-0.774 ± 0.99		< -1
SAGGSMTLTFRKPDTDVTSEKVTKPPGGPELVDLRITPPDGSGEKRTLTPEELAKEFGLSLEEILESAGGSA [r2_262_JUSTAS]	-0.183 ± 0.31		< -1
